According to patent US20200190194A1 (GlaxoSmithKline, published 2020):

T1: rabbit Fc-tagged recombinant extracellular human ICOS (human, UniProt Q9Y6W8 21-140)
T1 construct: also called dimeric human ICOS; not shown: rabbit Fc tag
T1 sequence: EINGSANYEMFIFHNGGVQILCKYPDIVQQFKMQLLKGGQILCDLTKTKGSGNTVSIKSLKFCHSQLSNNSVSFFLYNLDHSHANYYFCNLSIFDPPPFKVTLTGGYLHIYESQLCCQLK

T2: human ICOS ligand (B7-H2) (human, UniProt O75144 19-258, limits assumed)
T2 construct: it is treated as the same molecule; also called CD275; recombinant ICOS-L (R&D Systems)
T2 sequence (looked up): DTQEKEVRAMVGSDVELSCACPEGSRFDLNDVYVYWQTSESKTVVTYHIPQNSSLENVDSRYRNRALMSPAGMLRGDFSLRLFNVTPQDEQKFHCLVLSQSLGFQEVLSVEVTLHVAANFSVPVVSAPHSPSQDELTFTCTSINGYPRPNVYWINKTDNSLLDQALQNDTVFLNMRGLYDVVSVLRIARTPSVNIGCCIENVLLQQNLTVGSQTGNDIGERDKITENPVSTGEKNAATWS

B1: H2L5 IgG4PE (antibody, V domains shown)
VH: QVQLVQSGAEVKKPGSSVKVSCKASGYTFTDYAMHWVRQAPGQGLEWMGLISIYSDHTNYNQKFQGRVTITADKSTSTAYMELSSLRSEDTAVYYCGRNNYGNYGWYFDVWGQGTTVTVSS
VL: EIVLTQSPATLSLSPGERATLSCSASSSVSYMHWYQQKPGQAPRLLIYDTSKLASGIPARFSGSGSGTDYTLTISSLEPEDFAVYYCFQGSGYPYTFGQGTKLEIK
notes: Human IgG4 with Fc mutations S228P and L235E (EU numbering), called IgG4PE; humanized variant of murine clone 422.2; also called ICOS IgG4PE; H2L5 (ICOS) IgG4PE
B2: human ICOS on activated human T cells (receptor)
chain: EINGSANYEMFIFHNGGVQILCKYPDIVQQFKMQLLKGGQILCDLTKTKGSGNTVSIKSLKFCHSQLSNNSVSFFLYNLDHSHANYYFCNLSIFDPPPFKVTLTGGYLHIYESQLCCQLKFWLPIGCAAFVVVCILGCILICWLTKKKYSSSVHDPNGEYMFMRAVNTAKKSRLTDVTL
notes: the isoform 1 entry is named; also called cell surface ICOS; ICOS+ T cells (CD4, CD8, Treg)

Columns and labels:
[1] = target: T1, rabbit Fc-tagged recombinant …; experiment: SPR (Biacore), compared with human ICOS-L binding to dimeric human ICOS (FIG. 15B)
[2] = target: T2, human ICOS ligand (B7-H2); experiment: flow cytometry competition: activated T cells pre-incubated with recombinant ICOS-L (B7-H2), then stained with H2L5; CD8+ cells

Binder	fold higher affinity than the ICOS-L/ICOS interaction [1]	binding result [2]
B1	~17 fold	–
B2	–	binds
